The assay concerns the target HER3 on HER3-overexpressing HEK293 cells (human) (UniProt P21860). The experiment in a line: flow cytometry on cells; stable HEK293 cells expressing HER3 or HER4; purified NRG-1 mutants at 1 and 10 μg/mL, 4 °C, 1 h; goat antihuman Alexa Fluor 647. Background: Flow cytometry measures light scatter and fluorescence of single cells or particles in a stream.

Sequence of HER3 on HER3-overexpressing HEK293 cells (human) (P21860 20-1342): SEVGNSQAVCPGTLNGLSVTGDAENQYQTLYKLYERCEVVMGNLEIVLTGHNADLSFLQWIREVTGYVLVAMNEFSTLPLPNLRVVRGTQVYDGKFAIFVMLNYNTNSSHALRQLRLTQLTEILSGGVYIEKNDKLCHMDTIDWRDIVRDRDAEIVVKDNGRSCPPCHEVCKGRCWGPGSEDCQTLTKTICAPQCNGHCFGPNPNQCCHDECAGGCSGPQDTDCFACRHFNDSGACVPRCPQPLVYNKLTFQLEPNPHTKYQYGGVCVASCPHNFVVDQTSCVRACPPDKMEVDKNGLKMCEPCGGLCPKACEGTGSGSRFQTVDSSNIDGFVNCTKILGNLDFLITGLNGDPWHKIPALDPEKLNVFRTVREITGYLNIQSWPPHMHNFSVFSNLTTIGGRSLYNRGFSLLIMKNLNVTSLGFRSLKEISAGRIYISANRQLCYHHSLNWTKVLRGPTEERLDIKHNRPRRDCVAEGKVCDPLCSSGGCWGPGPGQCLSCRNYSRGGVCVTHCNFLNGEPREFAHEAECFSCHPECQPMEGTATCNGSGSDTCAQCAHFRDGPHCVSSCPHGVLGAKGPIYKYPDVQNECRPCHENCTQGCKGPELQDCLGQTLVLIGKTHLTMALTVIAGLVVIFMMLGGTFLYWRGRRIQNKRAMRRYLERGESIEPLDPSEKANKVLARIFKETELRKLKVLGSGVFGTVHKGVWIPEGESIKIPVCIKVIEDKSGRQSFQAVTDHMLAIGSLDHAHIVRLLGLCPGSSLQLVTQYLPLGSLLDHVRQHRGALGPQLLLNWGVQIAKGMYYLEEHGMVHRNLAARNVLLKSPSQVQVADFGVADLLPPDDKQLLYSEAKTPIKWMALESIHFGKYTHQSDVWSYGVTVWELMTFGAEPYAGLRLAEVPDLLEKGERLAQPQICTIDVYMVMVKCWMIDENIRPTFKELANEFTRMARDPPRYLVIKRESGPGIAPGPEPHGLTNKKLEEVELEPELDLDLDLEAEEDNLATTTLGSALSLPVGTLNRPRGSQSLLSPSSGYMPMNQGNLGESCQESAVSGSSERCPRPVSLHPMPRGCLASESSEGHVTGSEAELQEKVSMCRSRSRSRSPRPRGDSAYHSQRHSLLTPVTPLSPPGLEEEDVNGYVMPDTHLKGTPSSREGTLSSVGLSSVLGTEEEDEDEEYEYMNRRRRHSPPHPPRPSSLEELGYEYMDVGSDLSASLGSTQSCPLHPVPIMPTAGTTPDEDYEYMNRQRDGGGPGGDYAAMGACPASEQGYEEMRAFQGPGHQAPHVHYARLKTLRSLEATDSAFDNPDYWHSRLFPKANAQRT

Take NRG1-MFc variant P29L (Fc fusion): the ratio of median binding fluorescence to the parental clone is less than 0.8.

For the substance NRG1-MFc variant H2T (Fc fusion), the ratio of median binding fluorescence to the parental clone is less than 0.8.

For NRG1-MFc variant E8L (Fc fusion), the ratio of median binding fluorescence to the parental clone is less than 0.8.

NRG1-MFc variant P29D (Fc fusion): the ratio of median binding fluorescence to the parental clone is less than 0.8.

As for NRG1-MFc variant T41A (Fc fusion), the ratio of median binding fluorescence to the parental clone was less than 0.8.

In the case of NRG1-MFc variant H2E (Fc fusion), the ratio of median binding fluorescence to the parental clone was less than 0.8.

For NRG1-MFc variant K24G (Fc fusion), the ratio of median binding fluorescence to the parental clone is less than 0.8.
